Source: article PMC11003769
Substitutions are numbered along the chain they refer to.

B1: Fab of mAb 15-3 (Fab, V domains shown)
VH: QVQLQESGPGVVKPSETLSLSCGVSSASILGGYFFWSWIRQSPGKGLEWMGGVYTNSDTTNYNPSLKSRVAISKDTSVNQFSLRLTSVTAADTAVYYCTARATVHSSASYYYGGRIDVWGPGLLVTVSS
VL: DIQMTQSPSSLSASLGDRVTVTCRASQGINRDLSWFQQKPGKAPTLLIYEVSNLQTGVSSRFSGSGSGTDFTLTISSLQPEDVATYYCQQDYDFPLTFGGGTKVDLK
B2: Fab of mAb 7-2 (Fab, V domains shown)
VH: QVQLQASGPGVVKPSETLSLTCAVSGDYVRRGYFYWSWVRQSPGKGLEWIGGIYSNSDTTNYNPSLKSRLTISKDTSNNQFFLTLSSVTAADTAVYYCTSRAKIYSSGSYYAGGRIDVWGPGVQVIVSS
VL: B1 VL with I2V, Q3H, R18S, R31K, K42E, E50D, V51A, N53T, S77N
B3: Fab of mAb 6-6 (Fab, V domains shown)
VH: QVQLQVSGPGVVKPSETLSLTCSVSGDSFRRAYFFWSWVRQPPGKGLEWMGGIYTNSESTTYNPSLESRISVSKDASKNQFSLRLTSVTAADTAVYYCTSRAEVYFSGGYYSGGRIDVWGPGVLVTVSS
VL: DIQMTQSPSSLSASVGDRVTVTCRASQDINKDLSWFQQKPGEAPTLLIFTASTLQTGVSSRFSGSGSGTSFSLTISSLQPEDVATYFCQQDHSFPLTFGGGTRVDLQ

The binders below were run against HIV-1 BG505.DS.SOSIP.S613A Env trimer (HIV-1 (strain BG505)) (assay: BLI; Trimer-Fab method, Octet RED384, 25 °C, 1% BSA in PBS: trimer (100 nM) held by RM19R-human Fc IgG on anti-human Fc capture tips; Fab as analyte in serial dilutions; global fit to a 1:1 Langmuir model).

Row | Binder | Kd | koff | kon
1 | B1 | 0.104 nM | 7.98e-06 s⁻¹ | 76500 M⁻¹ s⁻¹
2 | B2 | 0.774 nM | 0.000109 s⁻¹ | 141000 M⁻¹ s⁻¹
3 | B3 | 17 nM | 0.00304 s⁻¹ | 179000 M⁻¹ s⁻¹
